Results published in patent publication US9872921B2, “DE-N-acetyl sialic acid antigens, antibodies thereto, and methods of use in cancer therapy” (priority 2004, dated 2018).

Assays:
normal melanocytes = assay: Immunostaining of frozen sections of normal human skin; conditions: frozen unfixed sections, 400× magnification
Protocol: To determine whether there is a difference in expression of SEAM 3-reactive antigen between normal melanocytes and melanoma tumor cells, immuno-staining of thin sections of each type of tissue were performed. In addition to SEAM 3, controls included the secondary antibody alone and R24, which binds to the ganglioside GD3 that is expressed in normal melanocytes and is overexpressed in some melanomas (Dippold et al. Proc Natl Acad Sci USA, 1980. 77(10): 6114-8.; Graus, et al., Brain Res, 1984. 324(1): 190-4; Houghton et al. Proc Natl Acad Sci USA, 1985. 82(4):1242-6; Panneerselvam et al. J Immunol, 1986. 136(7): 2534-41; Real et al. Cancer Res, 1985. 45(9): 4401-11; Vadhan-Raj et al. J Clin Oncol, 1988. 6(10): 1636-48; Welt t al. Clin Immunol Immunopathol, 1987. 45(2): 214-29).
The tissue sections were made from frozen samples of normal skin (HuSkinTb111 in FIG. 39) and two human melanomas (HuMel1151 and HuMel4034). To prevent the possibility of blocking de-N-acetyl antigen or extracting a lipid containing the antigen, the sections were prepared from frozen tissue and were dried onto the slides but not fixed with aldehydes or organic solvents (Chammas et al. Cancer Res, 1999. 59(6): 1337-46). […] Bound antibody was then detected using the DAKO LSAB kit following the manufacturer's directions (Thermo Fisher Scientific, Waltham, Mass.). […]

human tumors = assay: Immunohistochemistry on formalin-fixed paraffin embedded tissue microarrays of human tumors; conditions: primary antibody 1 to 5 μg/ml; 47 human tumors
Protocol: Initial immunohistochemical analysis of antigens recognized by SEAM 3 was performed on unfixed tissues out of concern that the de-N-acetyl amino groups could be blocked by reaction with formaldehyde (vide supra). Subsequently, it was determined that the amino group in de-N-acetyl sialic acid is relatively unreactive as a result of its close proximity to the C1 carboxyl group. Therefore, large scale screening of human tumors for the presence of SEAM 3-reactive antigens was performed using formalin-fixed paraffin embedded tissue sections since processing the samples by this method considerably improves the preservation of cell structural features.
Human tissue microarrays were obtained from US BioMax (Rockville, Md.). The tissue microarrays were deparaffinized in xylene (2 changes, 10 minutes each) then rehydrated by sequential 5 minute washes in 100% ethanol, 95% ethanol, 70% ethanol, 50% ethanol, and PBS buffer. Endogenous peroxidase was blocked by incubation with Peroxidazed 1 solution (Biocare, Concord, Calif.) for 5 minutes at ambient temperature. The sections were blocked with Terminator (Biocare) containing streptavidin then rinsed with PBS buffer. […]

normal tissues = assay: Immunohistochemistry on micro array of normal tissues; parameters: species or system human; conditions: 17 samples
Protocol: Human tissue microarrays were obtained from US BioMax (Rockville, Md.). The tissue microarrays were deparaffinized in xylene (2 changes, 10 minutes each) then rehydrated by sequential 5 minute washes in 100% ethanol, 95% ethanol, 70% ethanol, 50% ethanol, and PBS buffer. Endogenous peroxidase was blocked by incubation with Peroxidazed 1 solution (Biocare, Concord, Calif.) for 5 minutes at ambient temperature. The sections were blocked with Terminator (Biocare) containing streptavidin then rinsed with PBS buffer. The primary antibody (purified SEAM 3 (vide infra), irrelevant IgG2b control, etc. at concentrations of 1 to 5 μg/ml)) was diluted in Da Vinci Green dilution buffer (Biocare) and incubated either overnight at 4 degrees C. or for 1 hour at ambient temperature. The slides were washed 3 times for 10 minutes each with PBS buffer then incubated with biotin conjugated rabbit anti-mouse IgG secondary antibody (5 μg/ml, Vector Labs, Burlingame, Calif.) for 30 minutes at ambient temperature. After washing 3 times for 10 minutes each with PBS buffer, horse radish peroxidase-streptavidin conjugate (Vector Labs) was added and incubated at ambient temperature for 30 minutes. The slides were washed 3 times for 10 minutes each with PBS buffer and incubated with AEC substrate (Vector Labs) containing hydrogen peroxide for color development. […]

[1] = system: Jurkat T-cell leukemia cells; assay: Fluorescence microscopy binding to cells; assay type: cell-based, human; conditions: without Triton
Protocol: After an overnight incubation cells were gently washed with PBS buffer and fixed with ice-cold 1% (v/v) formaldehyde. After 20 minutes cells were washed with PBS before blocking non-specific binding with a solution of 3% goat serum for 1 hour. To observe the presence of SEAM 3-reactive antigen that is present inside the cells, the cells were treated Triton X-100 0.5% w/v in 3% goat serum for 1 hour. The primary antibodies were added and incubated for 2 hours or overnight at 4° C. Cells were gently washed by a series (at least twice) with ice-cold PBS before isotype-specific secondary antibody (produced in goat) conjugated with either Alexa Fluor 488 (immunofluorescence and confocal), Alexa Fluor 546 (confocal) Alexa Fluor 594 (immunofluorescence), Alexa Fluor 633 (confocal) was applied for at least 1 hour at 4° C. in the dark (all secondary antibodies conjugated to fluorophores were obtained from Invitrogen, Carlsbad, Calif.). After another series of gentle washes, a hardening mounting medium containing DAPI was applied.
Confocal images were obtained using a Zeiss Meta510 CLSM at the Biological Imaging Facility, University of California, Berkeley, Calif. and were analyzed using ImageJ Software (NIH). Control antibodies and secondary antibodies applied alone were routinely used to assess background fluorescence.

B1: SEAM 3: murine anti-N-Pr NmB polysaccharide monoclonal antibody (IgG2b), ATCC Deposit No. HB-12170 (antibody, V domains shown)
VH: EVKLQESGGGLVQPGDSLSLSCAASGFTFTPYYMGWVRQPPGKALEWLGYIRNKANGYTTEYSASVKGRFTISRDNSQSILYLQMNALRAEDSATYYCARYARGTVDSWGQGTTLTVS
VL: DIVMTQSPLTLSVTIGQPASISCKSSQSLLHSNGKTYLNWLLQRPGQSPKLLIYLVSKLESGVPDRFSGSGSGTDFTLKISRVEAEDLGLYYCLQIIHFPHTFGAGTKLELKRA
modifications: mouse
- immunostaining of normal human skin (normal melanocytes): binds to an antigen in neural like structures of the dermis but is not present in melanocytes
- tumor samples positive for binding (human tumors): 38 of 47
- normal tissue samples positive for binding (normal tissues): 15 of 17
- staining grade in positive normal tissue samples (normal tissues): + to ++
- binding to cell surface by microscopy [1]: fluorescence is uniform over the cell surface
